# Source: patent US20240209092A1 (ADAGENE, published 2024)
# T1: recombinant rat CTLA4 protein (extracellular domain) (rat, UniProt Q62859 36-161)
# T1 sequence: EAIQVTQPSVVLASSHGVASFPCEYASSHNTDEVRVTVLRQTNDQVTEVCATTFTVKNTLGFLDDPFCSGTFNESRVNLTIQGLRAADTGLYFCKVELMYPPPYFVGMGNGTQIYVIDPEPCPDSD
# T2: recombinant human CTLA4 protein (extracellular domain) (human, UniProt P16410 36-161)
# T2 construct: extracellular domain
# T2 sequence (looked up): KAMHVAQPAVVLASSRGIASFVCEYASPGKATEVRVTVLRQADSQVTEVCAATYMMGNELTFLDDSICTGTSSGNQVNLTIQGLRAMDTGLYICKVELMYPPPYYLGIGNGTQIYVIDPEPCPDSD
# T3: recombinant cynomolgus monkey CTLA4 protein (extracellular domain) (cynomolgus monkey, UniProt G7PL88 36-161)
# T3 sequence: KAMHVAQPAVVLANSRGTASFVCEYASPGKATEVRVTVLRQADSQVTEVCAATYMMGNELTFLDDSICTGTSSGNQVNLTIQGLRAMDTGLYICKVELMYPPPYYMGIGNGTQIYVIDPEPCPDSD
# T4: human CTLA4 expressed on cells (human, UniProt P16410 36-223)
# T4 sequence (looked up): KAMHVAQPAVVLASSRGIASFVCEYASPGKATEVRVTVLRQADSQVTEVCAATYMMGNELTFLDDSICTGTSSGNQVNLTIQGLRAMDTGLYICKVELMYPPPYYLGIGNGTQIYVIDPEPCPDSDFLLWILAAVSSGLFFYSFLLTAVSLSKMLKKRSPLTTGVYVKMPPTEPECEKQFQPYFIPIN
# What was measured:
# [1] = target: T1, recombinant rat CTLA4 protein …; test: ELISA, recombinant rat CTLA4 extracellular domain coated on the plate, captured antibody detected with HRP-labeled anti-human IgG (Fab specific), absorbance at 450 nm
# [2] = target: T5, recombinant mouse CTLA4 protein (extracellular domain) (mouse, UniProt P09793 36-161); test: ELISA, recombinant mouse CTLA4 extracellular domain coated on the plate, captured antibody detected with HRP-labeled anti-human IgG (Fab specific), absorbance at 450 nm
# T5 construct: extracellular domain
# [3] = target: T2, recombinant human CTLA4 protein …; test: ELISA, CTLA4 extracellular domain coated; reference masked TY22404
# [4] = target: T5, recombinant mouse CTLA4 protein …; test: as above
# [5] = target: T1, recombinant rat CTLA4 protein …; test: as above
# [6] = target: T3, recombinant cynomolgus monkey CTLA4 …; test: as above
# [7] = target: T4, human CTLA4 expressed on cells; test: cell-based or functional assay
# [8] = target: T2, recombinant human CTLA4 protein …; test: ELISA, recombinant human CTLA4 extracellular domain coated on the plate, captured antibody detected with HRP-labeled anti-human IgG (Fab specific), absorbance at 450 nm
# [9] = target: T3, recombinant cynomolgus monkey CTLA4 …; test: ELISA, recombinant cynomolgus monkey CTLA4 extracellular domain coated on the plate, captured antibody detected with HRP-labeled anti-human IgG (Fab specific), absorbance at 450 nm
# [10] = target: T2, recombinant human CTLA4 protein …; test: ELISA, CTLA4 extracellular domain coated, HRP anti-human IgG (Fab specific) detection
# [11] = target: T5, recombinant mouse CTLA4 protein …; test: as above
# [12] = target: T1, recombinant rat CTLA4 protein …; test: as above
# [13] = target: T3, recombinant cynomolgus monkey CTLA4 …; test: as above
Binder,EC50 (read off the curve) [1] [pM],EC50 (read off the curve) [2] [pM],fold increased affinity compared to masked TY22404 [3] [fold],fold increased affinity compared to masked TY22404 [4] [fold],fold increased affinity compared to masked TY22404 [5] [fold],fold increased affinity compared to masked TY22404 [6] [fold],EC50 (read off the curve) [7] [pM],EC50 (read off the curve) [8] [pM],EC50 (read off the curve) [9] [pM],EC50 [10] [pM],EC50 [11] [pM],EC50 [12] [pM],EC50 [13] [pM]
"activated TY22404 by condition 2 (antibody, IgG1; also called cleaved TY22404; not shown: remnant of the cleavable linker left after cleavage) heavy: not shown light: DIQLTQSPSSLSASVGDRVTITCRASQSVRGRFLAWYQQKPGKAPKLLIYDASNRATGIPSRFSGSGSGTDFTLTISSLQPEDFATYYCQQSSSWPPTFGQGTKVEIKRTVAAPSVFIFPPSDEQLKSGTASVVCLLNNFYPREAKVQWKVDNALQSGNSQESVTEQDSKDSTYSLSSTLTLSKADYEKHKVYACEVTHQGLSSPVTKSFNRGEC",~300,~300,> 250,> 300,> 100,~40,~700,~300,~300,~300,~300,~300,~300
"activated TY22404 by condition 1 (antibody, IgG1; also called cleaved TY22404; not shown: remnant of the cleavable linker left after cleavage) heavy: not shown light: DIQLTQSPSSLSASVGDRVTITCRASQSVRGRFLAWYQQKPGKAPKLLIYDASNRATGIPSRFSGSGSGTDFTLTISSLQPEDFATYYCQQSSSWPPTFGQGTKVEIKRTVAAPSVFIFPPSDEQLKSGTASVVCLLNNFYPREAKVQWKVDNALQSGNSQESVTEQDSKDSTYSLSSTLTLSKADYEKHKVYACEVTHQGLSSPVTKSFNRGEC",~300,~300,> 250,> 300,> 100,~40,,~300,~300,~300,~300,~300,~300
"TY22404 (masked, masking peptide intact) (antibody, It has the VH and VL of TY21580, with the mask/linker at the N-terminus of the light chain; also called masked TY22404; masking peptide-intact TY22404) heavy: not shown light: EVGSYPNPSSDCVPYYYACAYSGRSAGGGGTPLGLAGSGGSDIQLTQSPSSLSASVGDRVTITCRASQSVRGRFLAWYQQKPGKAPKLLIYDASNRATGIPSRFSGSGSGTDFTLTISSLQPEDFATYYCQQSSSWPPTFGQGTKVEIKRTVAAPSVFIFPPSDEQLKSGTASVVCLLNNFYPREAKVQWKVDNALQSGNSQESVTEQDSKDSTYSLSSTLTLSKADYEKHKVYACEVTHQGLSSPVTKSFNRGEC",~30000,~100000,,,,,,~70000,~10000,,,,
